Measured values reported in publication PMC5808563.
Like-named read-outs stand apart in the source and are kept apart here.

How the values were obtained:
[1] = target: integrin β3 transmembrane-cytoplasmic domain (TM/tail, residues 685-762) embedded in Nanodiscs (UniProt P05106); assay: FRET or BRET
[2] = target: integrin β3 transmembrane-cytoplasmic domain (TM/tail, residues 685-762) embedded in Nanodiscs (UniProt P05106); assay: FRET or BRET; remark: listed apart in the source

Chain of UniProt P05106 (P05106 711-788): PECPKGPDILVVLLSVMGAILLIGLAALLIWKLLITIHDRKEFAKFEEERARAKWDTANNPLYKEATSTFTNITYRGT

talin-1 head domain (THD) I398C, Uniblue A labelled (from UniProt P26039 1-433) (domain or fragment)
Kd [1]: 740 nM
fold increase in affinity over 50% DMPS Nanodiscs without the integrin tail [1]: 2 fold
Kd [2]: 580 nM
